According to patent publication US20030028002A1, “Cyclin D binding factor, and uses thereof” (published 2003):
Values belong to the molecule of their own block, whether it stands above or below them.

B1: cyclin D2 (other, mouse, UniProt P30280 1-289, looked up)
chain: MELLCCEVDPVRRAVPDRNLLEDRVLQNLLTIEERYLPQCSYFKCVQKDIQPYMRRMVATWMLEVCEEQKCEEEVFPLAMNYLDRFLAGVPTPKTHLQLLGAVCMFLASKLKETIPLTAEKLCIYTDNSVKPQELLEWELVVLGKLKWNLAAVTPHDFIEHILRKLPQQKEKLSLIRKHAQTFIALCATDFKFAMYPPSMIATGSVGAAICGLQQDDEVNTLTCDALTELLAKITHTDVDCLKACQEQIEALLLNSLQQFRQEQHNAGSKSVEDPDQATTPTDVRDVDL
B4: cyclin D3 (other, mouse, UniProt P30282 1-292, looked up)
chain: MELLCCEGTRHAPRAGPDPRLLGDQRVLQSLLRLEERYVPRASYFQCVQKEIKPHMRKMLAYWMLEVCEEQRCEEDVFPLAMNYLDRYLSCVPTRKAQLQLLGTVCLLLASKLRETTPLTIEKLCIYTDQAVAPWQLREWEVLVLGKLKWDLAAVIAHDFLALILHRLSLPSDRQALVKKHAQTFLALCATDYTFAMYPPSMIATGSIGAAVLGLGACSMSADELTELLAGITGTEVDCLRACQEQIEAALRESLREAAQTAPSPVPKAPRGSSSQGPSQTSTPTDVTAIHL

What was measured:
cyclin D2 [1] = biological target: B1; test: coinfected Sf9 cells, coprecipitation
cyclin D3 [2] = biological target: B4; test: coinfected Sf9 cells, coprecipitation
cyclin D2 [3] = biological target: B1; test: GST pull-down of 35S-labelled in vitro translated cyclin on glutathione-Sepharose, gel autoradiography
Experimental: (§1) Because DMP1 interacted with cyclin D2 in yeast, the ability of a glutathione S-transferase (GST)-DMP1 fusion protein to bind D-type cyclins in vitro is examined. GST is fused to residues 176-761 of DMP1 (in lieu of GAL4 in the original cDNA clone), and the bacterially synthesized recombinant protein is incubated with [³⁵S]methionine-labeled D-type cyclins prepared by transcription and translation in vitro. As a positive control, GST-RB which can specifically bind D-type cyclins in this assay is used (15). Bound cyclins recovered on washed glutathione-Sepharose beads are analyzed by electrophoresis on denaturing gels. […] GST-DMP1 is less efficient than GST-RB in binding cyclins D2 and D3 (˜4-fold less binding), and under these conditions, an interaction with D1 is not detected (lanes 3, 7, 11). No labeled proteins bind to GST alone (lanes 4, 8, 12), and neither cyclin A nor cyclin E bind to GST-RB or to GST-DMP1. A cyclin D2 mutant disrupted in an amino-terminal Leu-X-Cys-X-Glu pentapeptide that is required for high efficiency GST-RB binding is not detectably compromised in its interaction with GST-DMP1 (negative data not shown); in agreement, DMP1 bears no homology to RB or to RB-related family members (p107 and p130).

cyclin D3 [4] = biological target: B4; test: as above
Experimental: as §1

[5] = biological target: T1, DMP1 M11 (K319E) K319E (Mus musculus) (UniProt Q8CE22); test: EMSA; details: very faint band
T1 sequence: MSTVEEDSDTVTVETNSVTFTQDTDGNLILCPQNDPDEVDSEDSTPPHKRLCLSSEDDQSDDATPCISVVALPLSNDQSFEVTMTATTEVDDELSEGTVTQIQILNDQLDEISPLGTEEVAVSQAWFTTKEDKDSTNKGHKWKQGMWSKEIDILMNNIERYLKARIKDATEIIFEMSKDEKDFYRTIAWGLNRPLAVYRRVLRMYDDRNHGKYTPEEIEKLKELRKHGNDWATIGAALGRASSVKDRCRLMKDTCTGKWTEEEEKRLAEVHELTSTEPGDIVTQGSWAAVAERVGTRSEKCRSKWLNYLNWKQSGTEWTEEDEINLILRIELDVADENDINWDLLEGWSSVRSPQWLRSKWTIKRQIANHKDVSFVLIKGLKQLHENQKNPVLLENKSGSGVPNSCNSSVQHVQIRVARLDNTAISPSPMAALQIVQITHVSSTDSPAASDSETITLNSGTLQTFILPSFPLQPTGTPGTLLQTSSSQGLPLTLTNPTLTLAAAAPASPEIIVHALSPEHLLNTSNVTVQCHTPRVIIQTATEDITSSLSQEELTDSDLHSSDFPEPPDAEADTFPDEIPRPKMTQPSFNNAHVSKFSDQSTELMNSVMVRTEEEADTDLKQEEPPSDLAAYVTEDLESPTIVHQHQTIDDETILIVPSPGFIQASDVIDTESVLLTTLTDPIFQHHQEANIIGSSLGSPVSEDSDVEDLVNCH

[6] = biological target: T2, DMP1 M11 (K319E) expressed in NIH-3T3 cells K319E (Mus musculus) (UniProt Q8CE22); test: cell_activity; details: BS2 luciferase reporter
T2 sequence: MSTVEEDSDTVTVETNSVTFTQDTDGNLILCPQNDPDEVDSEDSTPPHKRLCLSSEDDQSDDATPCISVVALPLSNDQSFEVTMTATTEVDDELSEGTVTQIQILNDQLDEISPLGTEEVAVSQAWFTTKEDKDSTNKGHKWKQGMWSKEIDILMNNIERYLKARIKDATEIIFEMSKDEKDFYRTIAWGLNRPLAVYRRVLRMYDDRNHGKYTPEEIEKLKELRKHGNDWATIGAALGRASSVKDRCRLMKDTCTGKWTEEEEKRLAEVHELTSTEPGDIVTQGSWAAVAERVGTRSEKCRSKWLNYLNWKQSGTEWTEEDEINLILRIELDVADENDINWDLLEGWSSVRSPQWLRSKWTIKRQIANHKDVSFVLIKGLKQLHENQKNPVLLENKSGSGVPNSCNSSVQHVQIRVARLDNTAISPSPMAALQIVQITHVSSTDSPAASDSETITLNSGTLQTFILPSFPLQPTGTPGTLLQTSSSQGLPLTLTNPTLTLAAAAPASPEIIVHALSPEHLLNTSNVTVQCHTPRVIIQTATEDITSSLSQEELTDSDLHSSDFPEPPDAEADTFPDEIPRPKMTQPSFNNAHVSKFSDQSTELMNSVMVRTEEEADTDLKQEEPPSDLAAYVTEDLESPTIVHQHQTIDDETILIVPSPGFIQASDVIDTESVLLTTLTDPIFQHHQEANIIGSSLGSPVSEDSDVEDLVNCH

[7] = biological target: T3, DMP1 expressed in 293T cells (Mus musculus) (UniProt Q8CE22); test: cell_activity
T3 sequence: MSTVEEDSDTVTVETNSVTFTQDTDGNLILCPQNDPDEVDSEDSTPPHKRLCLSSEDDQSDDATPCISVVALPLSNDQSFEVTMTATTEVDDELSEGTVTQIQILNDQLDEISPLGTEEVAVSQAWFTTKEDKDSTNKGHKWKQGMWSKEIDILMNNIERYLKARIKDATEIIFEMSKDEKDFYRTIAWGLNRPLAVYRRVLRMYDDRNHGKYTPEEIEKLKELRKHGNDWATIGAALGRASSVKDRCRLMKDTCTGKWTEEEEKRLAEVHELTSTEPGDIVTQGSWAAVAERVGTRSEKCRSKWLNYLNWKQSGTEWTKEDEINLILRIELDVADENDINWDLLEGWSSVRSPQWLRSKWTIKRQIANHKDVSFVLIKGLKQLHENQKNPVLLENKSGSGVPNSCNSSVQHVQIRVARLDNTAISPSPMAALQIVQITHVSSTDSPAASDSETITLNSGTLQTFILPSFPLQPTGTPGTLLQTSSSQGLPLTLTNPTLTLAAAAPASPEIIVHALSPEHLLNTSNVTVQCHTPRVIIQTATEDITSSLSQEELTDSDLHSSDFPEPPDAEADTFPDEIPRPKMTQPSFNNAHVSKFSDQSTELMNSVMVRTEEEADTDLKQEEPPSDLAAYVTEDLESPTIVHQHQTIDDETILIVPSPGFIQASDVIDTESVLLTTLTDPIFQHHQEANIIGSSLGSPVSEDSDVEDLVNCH

[8] = biological target: T4, DMP1 expressed in NIH-3T3 cells (Mus musculus) (UniProt Q8CE22); test: cell_activity; details: BS2 luciferase reporter
T4 sequence: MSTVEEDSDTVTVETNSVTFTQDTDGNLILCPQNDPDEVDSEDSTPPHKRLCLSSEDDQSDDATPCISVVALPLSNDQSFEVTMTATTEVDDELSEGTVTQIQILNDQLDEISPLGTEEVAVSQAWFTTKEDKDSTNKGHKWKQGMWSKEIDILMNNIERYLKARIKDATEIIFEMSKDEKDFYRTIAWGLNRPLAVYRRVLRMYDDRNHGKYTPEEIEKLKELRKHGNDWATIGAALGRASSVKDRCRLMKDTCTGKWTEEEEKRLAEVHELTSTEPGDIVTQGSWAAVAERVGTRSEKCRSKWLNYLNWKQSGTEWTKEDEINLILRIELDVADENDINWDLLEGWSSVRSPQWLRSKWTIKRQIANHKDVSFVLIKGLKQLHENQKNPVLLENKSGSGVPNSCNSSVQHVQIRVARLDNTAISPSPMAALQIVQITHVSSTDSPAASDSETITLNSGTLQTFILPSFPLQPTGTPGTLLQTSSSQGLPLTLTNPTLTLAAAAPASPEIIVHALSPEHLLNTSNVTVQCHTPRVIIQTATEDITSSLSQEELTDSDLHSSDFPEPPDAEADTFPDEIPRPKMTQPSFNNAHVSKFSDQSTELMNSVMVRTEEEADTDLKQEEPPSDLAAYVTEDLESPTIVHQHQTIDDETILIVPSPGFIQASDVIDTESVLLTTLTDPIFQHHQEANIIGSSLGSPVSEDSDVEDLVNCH

[9] = biological target: T5, DMP1 (cyclin D-binding myb-like protein), murine, full length (mouse, UniProt Q8CE22 1-761, multiple phosphorylated forms when made in Sf9 cells (sites not given)); test: cell-based or functional assay
T5 sequence: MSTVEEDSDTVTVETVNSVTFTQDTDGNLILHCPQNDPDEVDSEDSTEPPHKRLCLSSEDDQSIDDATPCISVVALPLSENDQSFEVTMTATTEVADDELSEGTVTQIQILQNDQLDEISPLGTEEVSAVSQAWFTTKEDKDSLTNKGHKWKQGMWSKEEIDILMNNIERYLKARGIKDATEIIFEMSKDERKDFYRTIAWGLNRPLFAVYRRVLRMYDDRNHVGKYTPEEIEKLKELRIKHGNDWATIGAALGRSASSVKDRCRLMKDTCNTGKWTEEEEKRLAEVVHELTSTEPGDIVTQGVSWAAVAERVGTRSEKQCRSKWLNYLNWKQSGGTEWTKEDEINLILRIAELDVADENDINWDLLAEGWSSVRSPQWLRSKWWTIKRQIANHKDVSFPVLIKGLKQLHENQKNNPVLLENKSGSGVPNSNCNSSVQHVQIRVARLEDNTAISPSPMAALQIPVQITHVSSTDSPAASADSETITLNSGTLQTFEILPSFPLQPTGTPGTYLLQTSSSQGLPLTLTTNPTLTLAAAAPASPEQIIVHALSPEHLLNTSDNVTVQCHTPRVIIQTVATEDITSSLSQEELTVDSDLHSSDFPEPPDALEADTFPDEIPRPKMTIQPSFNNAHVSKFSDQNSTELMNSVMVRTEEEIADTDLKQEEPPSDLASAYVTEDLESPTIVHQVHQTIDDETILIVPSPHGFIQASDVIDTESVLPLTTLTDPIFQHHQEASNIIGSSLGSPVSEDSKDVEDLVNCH

D-type cyclins = test: coexpression in Sf9 cells, coprecipitation (FIG. 3)

binding ratio of cyclin to RB (cyclin D2 [1]): 1 ratio (1:1)
binding ratio of cyclin to RB (cyclin D3 [2]): 1 ratio (1:1)
Molecule: RB (retinoblastoma protein) coexpressed in Sf9 cells

percent of the total input protein bound (cyclin D2 [3]): 20%
percent of the total input protein bound (cyclin D3 [4]): 20%
Molecule: GST-RB fusion protein (from UniProt P08515 1-218)

Molecule: AATTGACCCGTATGTAGGTACGC (double strand) [BS2]
binding signal (% of wild type) [5]: 2
activity (fold activation) [6]: 1.1
activity (fold activation) ([7]; 8x BS2 luciferase reporter): 20
activity (fold activation) [8]: 8.4

Molecule: AATTGACCCGGATGTAGGTACGC (double strand) [BS1]
activity (fold activation) ([7]; 6x BS1 luciferase reporter): 7

Molecule: B1
Luciferase Activity (DMP1 transactivation of a DMP1-responsive reporter; DMP1 alone 8.4, no DMP1 1.0) [9]: 1.6 relative to empty expression vector = 1.0

Luciferase Activity (DMP1 transactivation of a DMP1-responsive reporter; DMP1 alone 8.4, no DMP1 1.0) [9]: 1.5 relative to empty expression vector = 1.0
B2: cyclin D1 (other, mouse, UniProt P25322 1-295, looked up)
chain: MEHQLLCCEVETIRRAYPDTNLLNDRVLRAMLKTEETCAPSVSYFKCVQKEIVPSMRKIVATWMLEVCEEQKCEEEVFPLAMNYLDRFLSLEPLKKSRLQLLGATCMFVASKMKETIPLTAEKLCIYTDNSIRPEELLQMELLLVNKLKWNLAAMTPHDFIEHFLSKMPEADENKQTIRKHAQTFVALCATDVKFISNPPSMVAAGSVVAAMQGLNLGSPNNFLSCYRTTHFLSRVIKCDPDCLRACQEQIEALLESSLRQAQQNVDPKATEEEGEVEEEAGLACTPTDVRDVDI

percent of DMP1 molecules in stable complexes with D-type cyclins (D-type cyclins): < 15%
B3: DMP1 (cyclin D-binding myb-like protein), murine, full length (protein)
chain: MSTVEEDSDTVTVETVNSVTFTQDTDGNLILHCPQNDPDEVDSEDSTEPPHKRLCLSSEDDQSIDDATPCISVVALPLSENDQSFEVTMTATTEVADDELSEGTVTQIQILQNDQLDEISPLGTEEVSAVSQAWFTTKEDKDSLTNKGHKWKQGMWSKEEIDILMNNIERYLKARGIKDATEIIFEMSKDERKDFYRTIAWGLNRPLFAVYRRVLRMYDDRNHVGKYTPEEIEKLKELRIKHGNDWATIGAALGRSASSVKDRCRLMKDTCNTGKWTEEEEKRLAEVVHELTSTEPGDIVTQGVSWAAVAERVGTRSEKQCRSKWLNYLNWKQSGGTEWTKEDEINLILRIAELDVADENDINWDLLAEGWSSVRSPQWLRSKWWTIKRQIANHKDVSFPVLIKGLKQLHENQKNNPVLLENKSGSGVPNSNCNSSVQHVQIRVARLEDNTAISPSPMAALQIPVQITHVSSTDSPAASADSETITLNSGTLQTFEILPSFPLQPTGTPGTYLLQTSSSQGLPLTLTTNPTLTLAAAAPASPEQIIVHALSPEHLLNTSDNVTVQCHTPRVIIQTVATEDITSSLSQEELTVDSDLHSSDFPEPPDALEADTFPDEIPRPKMTIQPSFNNAHVSKFSDQNSTELMNSVMVRTEEEIADTDLKQEEPPSDLASAYVTEDLESPTIVHQVHQTIDDETILIVPSPHGFIQASDVIDTESVLPLTTLTDPIFQHHQEASNIIGSSLGSPVSEDSKDVEDLVNCH
modifications: multiple phosphorylated forms when made in Sf9 cells (sites not given)

Molecule: B4
Luciferase Activity (DMP1 transactivation of a DMP1-responsive reporter; DMP1 alone 8.4, no DMP1 1.0) [9]: 1.6 relative to empty expression vector = 1.0
